{
  "source": "patent US20180155451A1",
  "about": "(published 2018)",
  "binders": {"B1": {"name": "GpH7-A5/GpH7-B3 variant G237_11K/GpL16-k0 (antibody, human IgG1, kappa)", "heavy 1": "not shown", "heavy 2": "not shown", "light": "DIVMTQSPLSLPVTPGEPASISCQASESLVHSNRNTYLHWYLQKPGQSPQLLIYKVSNRFSGVPDRFSGSGSGTDFTLKISRVEAEDVGVYYCSQNTHVPPTFGQGTKVEIERTVAAPSVFIFPPSDEQLKSGTASVVCLLNNFYPREAKVQWKVDNALQSGNSQESVTEQDSKDSTYSLSSTLTLSKADYEKHKVYACEVTHQGLSSPVTKSFNRGEC", "notes": "Heterodimerized anti-glypican-3 IgG1; substitution in only one H chain; also called G237K; He Ab"}, "B2": {"name": "GpH7-A5/GpH7-B3 variant G237_12R/GpL16-k0 (antibody, human IgG1, kappa)", "heavy 1": "not shown", "heavy 2": "not shown", "light": "B1 light", "notes": "Heterodimerized anti-glypican-3 IgG1; substitution in only one H chain; also called G237R; He Ab"}, "B3": {"name": "GpH7-A5/GpH7-B3 variant G237_14T/GpL16-k0 (antibody, human IgG1, kappa)", "heavy 1": "not shown", "heavy 2": "not shown", "light": "B1 light", "notes": "Heterodimerized anti-glypican-3 IgG1; substitution in only one H chain; also called G237T; He Ab"}, "B4": {"name": "GpH7-A5/GpH7-B3 variant G237_16H/GpL16-k0 (antibody, human IgG1, kappa)", "heavy 1": "not shown", "heavy 2": "not shown", "light": "B1 light", "notes": "Heterodimerized anti-glypican-3 IgG1; substitution in only one H chain; also called G237H; He Ab"}, "B5": {"name": "GpH7-A5/GpH7-B3 variant P238_01G/GpL16-k0 (antibody, human IgG1, kappa)", "heavy 1": "not shown", "heavy 2": "not shown", "light": "B1 light", "notes": "Heterodimerized anti-glypican-3 IgG1; substitution in only one H chain; also called P238G; He Ab"}, "B6": {"name": "GpH7-A5/GpH7-B3 variant P238_02A/GpL16-k0 (antibody, human IgG1, kappa)", "heavy 1": "not shown", "heavy 2": "not shown", "light": "B1 light", "notes": "Heterodimerized anti-glypican-3 IgG1; substitution in only one H chain; also called P238A; He Ab"}, "B7": {"name": "GpH7-A5/GpH7-B3 variant P238_07I/GpL16-k0 (antibody, human IgG1, kappa)", "heavy 1": "not shown", "heavy 2": "not shown", "light": "B1 light", "notes": "Heterodimerized anti-glypican-3 IgG1; substitution in only one H chain; also called P238I; He Ab"}, "B8": {"name": "GpH7-A5/GpH7-B3 variant P238_11K/GpL16-k0 (antibody, human IgG1, kappa)", "heavy 1": "not shown", "heavy 2": "not shown", "light": "B1 light", "notes": "Heterodimerized anti-glypican-3 IgG1; substitution in only one H chain; also called P238K; He Ab"}, "B9": {"name": "GpH7-A5/GpH7-B3 variant P238_12R/GpL16-k0 (antibody, human IgG1, kappa)", "heavy 1": "not shown", "heavy 2": "not shown", "light": "B1 light", "notes": "Heterodimerized anti-glypican-3 IgG1; substitution in only one H chain; also called P238R; He Ab"}, "B10": {"name": "GpH7-A5/GpH7-B3 variant P238_13S/GpL16-k0 (antibody, human IgG1, kappa)", "heavy 1": "not shown", "heavy 2": "not shown", "light": "B1 light", "notes": "Heterodimerized anti-glypican-3 IgG1; substitution in only one H chain; also called P238S; He Ab"}, "B11": {"name": "GpH7-A5/GpH7-B3 variant P238_14T/GpL16-k0 (antibody, human IgG1, kappa)", "heavy 1": "not shown", "heavy 2": "not shown", "light": "B1 light", "notes": "Heterodimerized anti-glypican-3 IgG1; substitution in only one H chain; also called P238T; He Ab"}, "B12": {"name": "GpH7-A5/GpH7-B3 variant P238_18N/GpL16-k0 (antibody, human IgG1, kappa)", "heavy 1": "not shown", "heavy 2": "not shown", "light": "B1 light", "notes": "Heterodimerized anti-glypican-3 IgG1; substitution in only one H chain; also called P238N; He Ab"}},
  "data": [
    {"target": "T1, FcγRIa extracellular domain with C-terminal His tag (human, UniProt P12314 16-292)", "T1 construct": "extracellular domain; Soluble receptor expressed in FreeStyle293 cells, used as analyte in Biacore; also called FcgRI; CD64; not shown: His tag at the C terminus", "T1 sequence (P12314 16-292)": "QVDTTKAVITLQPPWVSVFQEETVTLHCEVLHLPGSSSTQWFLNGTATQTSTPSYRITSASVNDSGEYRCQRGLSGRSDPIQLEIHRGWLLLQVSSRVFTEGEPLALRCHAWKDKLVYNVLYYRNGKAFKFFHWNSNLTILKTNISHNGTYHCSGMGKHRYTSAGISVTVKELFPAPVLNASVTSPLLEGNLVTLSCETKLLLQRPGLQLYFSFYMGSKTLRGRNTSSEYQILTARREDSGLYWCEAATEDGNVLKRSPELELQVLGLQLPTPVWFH", "assay": "SPR (Biacore), antibody captured via antigen peptide, FcγR as analyte; binding relative to GpH7-A5/GpH7-B3/GpL16-k0 = 100", "values": [
      {"binder": "B1", "He/Con_1a": "63.3 % of control (GpH7-A5/GpH7-B3/GpL16-k0 = 100)"},
      {"binder": "B2", "He/Con_1a": "65.8 % of control (GpH7-A5/GpH7-B3/GpL16-k0 = 100)"},
      {"binder": "B3", "He/Con_1a": "82.3 % of control (GpH7-A5/GpH7-B3/GpL16-k0 = 100)"},
      {"binder": "B4", "He/Con_1a": "72.6 % of control (GpH7-A5/GpH7-B3/GpL16-k0 = 100)"},
      {"binder": "B5", "He/Con_1a": "92.9 % of control (GpH7-A5/GpH7-B3/GpL16-k0 = 100)"},
      {"binder": "B6", "He/Con_1a": "95.2 % of control (GpH7-A5/GpH7-B3/GpL16-k0 = 100)"},
      {"binder": "B7", "He/Con_1a": "99.1 % of control (GpH7-A5/GpH7-B3/GpL16-k0 = 100)"},
      {"binder": "B8", "He/Con_1a": "77.4 % of control (GpH7-A5/GpH7-B3/GpL16-k0 = 100)"},
      {"binder": "B9", "He/Con_1a": "77.3 % of control (GpH7-A5/GpH7-B3/GpL16-k0 = 100)"},
      {"binder": "B10", "He/Con_1a": "96.6 % of control (GpH7-A5/GpH7-B3/GpL16-k0 = 100)"},
      {"binder": "B11", "He/Con_1a": "91.1 % of control (GpH7-A5/GpH7-B3/GpL16-k0 = 100)"},
      {"binder": "B12", "He/Con_1a": "93.3 % of control (GpH7-A5/GpH7-B3/GpL16-k0 = 100)"}
    ]},
    {"target": "T2, FcγRIIb extracellular domain with C-terminal His tag (human, UniProt P31994 43-217)", "T2 construct": "extracellular domain; Soluble receptor expressed in FreeStyle293 cells, used as analyte in Biacore; also called FcgRIIb; CD32B; not shown: His tag at the C terminus", "T2 sequence (looked up)": "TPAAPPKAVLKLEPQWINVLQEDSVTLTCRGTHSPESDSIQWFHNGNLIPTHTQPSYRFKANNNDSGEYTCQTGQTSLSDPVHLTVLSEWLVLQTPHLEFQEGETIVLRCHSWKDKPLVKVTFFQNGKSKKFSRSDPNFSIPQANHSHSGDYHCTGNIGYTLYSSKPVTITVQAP", "assay": "SPR (Biacore), antibody captured via antigen peptide, FcγR as analyte; binding relative to GpH7-A5/GpH7-B3/GpL16-k0 = 100", "values": [
      {"binder": "B3", "He/Con_2b": "54.8 % of control (GpH7-A5/GpH7-B3/GpL16-k0 = 100)"},
      {"binder": "B4", "He/Con_2b": "55.2 % of control (GpH7-A5/GpH7-B3/GpL16-k0 = 100)"},
      {"binder": "B5", "He/Con_2b": "56 % of control (GpH7-A5/GpH7-B3/GpL16-k0 = 100)"},
      {"binder": "B6", "He/Con_2b": "57.4 % of control (GpH7-A5/GpH7-B3/GpL16-k0 = 100)"},
      {"binder": "B7", "He/Con_2b": "80 % of control (GpH7-A5/GpH7-B3/GpL16-k0 = 100)"},
      {"binder": "B8", "He/Con_2b": "18.1 % of control (GpH7-A5/GpH7-B3/GpL16-k0 = 100)"},
      {"binder": "B9", "He/Con_2b": "51.4 % of control (GpH7-A5/GpH7-B3/GpL16-k0 = 100)"},
      {"binder": "B10", "He/Con_2b": "70.4 % of control (GpH7-A5/GpH7-B3/GpL16-k0 = 100)"},
      {"binder": "B11", "He/Con_2b": "50.7 % of control (GpH7-A5/GpH7-B3/GpL16-k0 = 100)"},
      {"binder": "B12", "He/Con_2b": "73.2 % of control (GpH7-A5/GpH7-B3/GpL16-k0 = 100)"}
    ]},
    {"target": "T1, FcγRIa extracellular domain with …", "assay": "SPR (Biacore); ratio of He/Con_1a (FcγRIa) to He/Con_2b (FcγRIIb) of the same antibody", "values": [
      {"binder": "B1", "Ia/IIb He_1a/2b": 7.05},
      {"binder": "B2", "Ia/IIb He_1a/2b": 6.71},
      {"binder": "B3", "Ia/IIb He_1a/2b": 1.5},
      {"binder": "B4", "Ia/IIb He_1a/2b": 1.32},
      {"binder": "B5", "Ia/IIb He_1a/2b": 1.66},
      {"binder": "B6", "Ia/IIb He_1a/2b": 1.66},
      {"binder": "B7", "Ia/IIb He_1a/2b": 1.24},
      {"binder": "B8", "Ia/IIb He_1a/2b": 4.27},
      {"binder": "B9", "Ia/IIb He_1a/2b": 1.5},
      {"binder": "B10", "Ia/IIb He_1a/2b": 1.37},
      {"binder": "B11", "Ia/IIb He_1a/2b": 1.8},
      {"binder": "B12", "Ia/IIb He_1a/2b": 1.27}
    ]}
  ]
}
